Results from the supplement of paper PMC12042874.
± gives the uncertainty stated by the source.

test: amyloid nucleation score (Sup35N fusion, yeast selection) (log enrichment); library NNK1; higher = more nucleation; inactive = no reads after selection
In short: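 Nucleation score: DiMSum log enrichment of output over input reads, centred on the mode score of non-aggregating sequences. Only sequences with at least 100 input reads were kept. Reads came from Illumina sequencing of plasmid inserts before and after 7 days of growth at 30°C without adenine and uracil, in psi-negative yeast expressing Sup35N fused to peptides of 20 random codons after 24 hours of induction with 100 μM copper sulfate.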

In order of falling amyloid nucleation score:
1. FIASGPVHLRLYAKFNNFHL  8.643 ± 0.06
2. FIGAFRTTHSAGLLTDRMVL  7.851 ± 0.057
3. FNYYITFHCTCELECRGYCT  7.841 ± 0.05
4. FGMIFFLLTMALRDVCVRLR  7.24 ± 0.084
5. FHNVFCFSYFT  7.21 ± 0.078
6. FSYCAFHIMNQWVVFNYGGC  6.421 ± 0.06
7. FNVISVWSPWQW  6.3 ± 0.064
8. FMLCNFLVVIYSGSR  5.82 ± 0.063
9. FFKGGVNGIFINNGSTFG  4.91 ± 0.067
10. FSSEVRVWVWNCCFNRFSCI  4.74 ± 0.061
11. FSCFLMEISKGRGH  4.18 ± 0.11
12. FHTNMTVSYQTKLVLDRYWN  3.42 ± 0.14
13. FMPRSLHLTTWLQSNAFNNA  3.22 ± 0.068
14. FRWYRLRIIKSFSGNSASVR  3.1 ± 0.074
15. FLHVPVLFSFTHCFMG  3.03 ± 0.13
16. GATSFFFSFRESNPLSNNHS  2.79 ± 0.099
17. FIIKYK  2.26 ± 0.19
18. GAIEASLVYRISNFKAGFAP  1.91 ± 0.35
19. GDVLVSTNHIGFFKGPG  1.91 ± 0.27
20. FYFTHRFRITVRYSVLVMRT  1.69 ± 0.51
21. FRMCCNYYICHLDGVILIG  1.65 ± 0.26
22. FQIRSRISIDCVMVNRDELS  1.41 ± 0.18
23. FIRGDANSLLHYLSDCVRE  1.37 ± 0.9
24. GCSTYMVLMVGLGGGMLGGF  1.32 ± 0.26
25. FSVNP  1.22 ± 0.69
26. FQYTACIN  1.08 ± 0.57
27. FKVKIVKCLGMFLLTIASLL  1.07 ± 0.39
28. FPESNKLMV  1.06 ± 0.65
29. FRYKDGCSFSTAVDYSCRMF  1.06 ± 0.23
30. FQHLNMVTAFSDSRGIPYML  1.05 ± 0.38
31. FIEQGHYNHTGFGSYGWRF  0.972 ± 0.29
32. FLLCVSHLELSY  0.968 ± 0.49
33. GCTSGGLCIGPPRSV  0.906 ± 1
34. FFVFSRAHCAQSSLNKKYL  0.888 ± 0.3
35. FVMFMPFSSHFS  0.848 ± 0.58
36. FRKGDILRTFSMFKSKYTVG  0.839 ± 0.65
37. FGCNELNR  0.826 ± 0.5
38. FWNINSSFFGLTNDTLVPNF  0.79 ± 0.22
39. FWVSCRSMCEIRVSLKLRLN  0.719 ± 0.59
40. FINNNVEDYFISL  0.712 ± 0.41
41. FPSARYNNLT  0.655 ± 0.57
42. FKEMIAWPWLESSSGEFTIV  0.645 ± 0.62
43. FSLFTWSWFR  0.625 ± 0.42
44. FIGGLHMALYDYPVEGSALA  0.622 ± 0.76
45. FVTANMTKLFTLWNWRLPGK  0.583 ± 0.29
46. FMHAFRNQRLNLAGLGFRVA  0.573 ± 0.62
47. GCHLVWFGVVYRQQWSFGVD  0.563 ± 0.57
48. FRLEGRCSLLFCTCRLDV  0.561 ± 0.45
49. FQSLGTFLDIQLCGHNLVAE  0.537 ± 0.34
50. FPLGSFIDLQRDMGIN  0.53 ± 0.4
51. FNGRVRGYHSLDNVVHGRLY  0.522 ± 0.58
52. FILCMLMVSAGLFEQEALRY  0.506 ± 0.24
53. GCRTLHGGAVDKLYTWCHLA  0.504 ± 0.92
54. FRIAGSKRCFCID  0.463 ± 0.31
55. FYFGTSDIPGFFNKSIYLVP  0.435 ± 0.38
56. FNTCMSLFSNCFPNCWMHFK  0.428 ± 0.61
57. FPDYQVLLQCYLN  0.418 ± 0.38
58. FMPMNVSNKTSELRYFCNGP  0.417 ± 0.74
59. FIATNLSLYGFVYWLLSTTT  0.414 ± 0.42
60. GDAMASFPAACCGTRCCGFV  0.41 ± 0.4
61. FYLSYVIIYSSSIRCLSSCR  0.388 ± 0.71
62. FPENGLRSFSCPLVH  0.382 ± 0.66
63. FGNGHSRMHHRTLHTKPRAA  0.37 ± 1.1
64. GCMVFS  0.352 ± 0.76
65. FRLVNIIR  0.317 ± 0.33
66. FSRPWWRSWHSFFSHDEKTI  0.282 ± 0.69
67. FISHGRIVHGEDGAVLFVSG  0.277 ± 1.4
68. FHMAKRLYC  0.276 ± 0.46
69. GCNSMTRLLRGAWPPPYWRG  0.274 ± 0.77
70. FTDLFPEDRIWVPDYAGQRR  0.255 ± 1.4
71. FKESLGFMFMHDMSWDGLLV  0.224 ± 0.7
72. FVETS  0.198 ± 0.29
73. FKSVGLTWALRGRINKTYLE  0.195 ± 0.21
74. FYRNIIKINMMVLWISWGHV  0.185 ± 0.79
75. FGMSCRVELDSDRARTTPWP  0.181 ± 0.64
76. FSTHSIWSLRVSNSVSLFNE  0.178 ± 0.66
77. FKRFWLR  0.166 ± 0.73
78. GAPLTENKFVLRNFVMGSAL  0.159 ± 0.77
79. FVLWIY  0.14 ± 0.47
80. FVGNPSRRWLCHCKFIAGGH  0.137 ± 0.38
81. GAYLLPLSIWNLGPSNGR  0.132 ± 0.44
82. FFLRESNVGLAQRATMELLD  0.13 ± 1.2
83. FVFKIWQSD  0.116 ± 0.58
84. FGYNFRPHHCGCTRNLNSQM  0.115 ± 0.29
85. GDLGCVYSLFRSLFSSFTRS  0.111 ± 0.35
86. FGSDPISCGVWYMCVRGWYG  0.108 ± 0.3
87. FICVMTRSGQDSSGMLLREG  0.105 ± 0.2
88. FISNVWPYGESRFEESNPCL  0.094 ± 0.52
89. FTSPVIKY  0.089 ± 0.89
90. FLFLYNVGVVIRSGYMFLRS  0.088 ± 0.93
91. FLMLRAYESMARFYDVLWIG  0.088 ± 0.37
92. FMALLQLAGVIWVSLTVLTP  0.08 ± 0.62
93. FWKTLQIFRTMVVN  0.055 ± 0.9
94. FTESCRRGI  0.053 ± 0.4
95. FRRVVNVSCTLTHSWIILLM  0.042 ± 1.1
96. FVQFTCSIRDYCA  0.033 ± 0.97
97. FTWIVFANSSAYFRTLQWSC  0.032 ± 0.28
98. FFWCRSRLTLAF  0.024 ± 0.35
99. FISAACEEPVTFMGNYGGYG  0.02 ± 0.53
100. FFWRHLESGMGFHKACSHGG  0.005 ± 1.7
101. FFKLKHGNTDRSYIYYVGCA  -0.01 ± 0.21
102. FSSQYQMSAGVF  -0.013 ± 0.56
103. FNVLCPRRQNLSGVELD  -0.02 ± 0.45
104. FGLAGHFYNWNYIYTSSVWF  -0.021 ± 0.59
105. FIFVIDTRVLRTLINCPTPS  -0.047 ± 0.36
106. GDKCLVTYCYLLGDGEGQQS  -0.05 ± 0.43
107. FSASFNGLAAGRLASR  -0.105 ± 1.3
108. FMMSNWTNLNSWKTL  -0.122 ± 0.23
109. FKVPVYGWLWETTVVSADTS  -0.131 ± 0.37
110. FHFWEMFTQEAAPIWRWF  -0.139 ± 0.75
111. FMASTRRFPLSLMRRAHVYL  -0.182 ± 1.3
112. FIRWKLVYYDIMKCPSCSHH  -0.187 ± 0.61
113. FWYFMLNMVQPRY  -0.198 ± 0.87
114. FLFRFQKCLFNCFVLGLVSR  -0.206 ± 0.53
115. FFSYVYGVSACFLVTLLFGP  -0.229 ± 0.32
116. FPNALDYLYVV  -0.243 ± 0.22
117. GASGGVTASLLKTRITVTWV  -0.271 ± 0.79
118. GAKICIYELVLHEMRACVAR  -0.282 ± 0.96
119. FRSPN  -0.285 ± 0.58
120. FMDTAMTSFGSLSW  -0.317 ± 0.55
121. FSYKIMTSGTCTTWRNAFFS  -0.341 ± 0.33
122. FYCMLSSSSNFPSGNDRAYD  -0.341 ± 0.5
123. GDSRTLGLLCFYMKVG  -0.352 ± 0.41
124. FLHNSWTGGGGTYGICKMRV  -0.368 ± 0.65
125. GAIIFLSCGWSKCFCTLWVI  -0.381 ± 0.38
126. GDNVFFMLERALFVVRNRRV  -0.386 ± 0.86
127. FRRLRMLLILASKFGVD  -0.392 ± 0.34
128. FIWGLKLVDFSLPVSAL  -0.411 ± 0.51
129. FMFDNYIGRSGSGGCSGDGR  -0.417 ± 1.2
130. FVSNGSYVGIS  -0.42 ± 0.51
131. FSSGVILSGRRRSLK  -0.437 ± 0.49
132. FNSGNQ  -0.442 ± 0.37
133. FLGLLLCCLVRAPLPFGMRA  -0.459 ± 0.56
134. FSGLCRSTPGI  -0.469 ± 0.32
135. FSHGFMITICHWEMTKETDW  -0.476 ± 0.37
136. FVEVVRTLEQI  -0.485 ± 1
137. GEKWMLEVASFICKSGFRVC  -0.535 ± 1.7
138. FVRGDKLRTTGELSSAINRS  -0.608 ± 0.57
139. GAPEVPIDYGLEASRNCSKG  -0.61 ± 1.4
140. FFTCNGWAGS  -0.614 ± 0.38
141. FYGFRCGYLDVSL  -0.648 ± 0.33
142. GEGSCGVSLSSMYLQWGARV  -0.663 ± 0.83
143. FGMKMGMMRVV  -0.688 ± 1.2
144. FQYLNLGISRHSARWTCTFL  -0.698 ± 1.4
145. FSMSILENRYTTFELSGAYQ  -0.722 ± 0.66
146. FISSNDIYGGATGWDSSDVT  -0.743 ± 0.36
147. FYWMMANRNTQCVVCFAVLR  -0.754 ± 0.54
148. FVTKGVERCRVPEVSLPCLI  -0.839 ± 1.2
149. FGKFKRRRGMSKMNRMEITK  -0.841 ± 1.5
150. FSPSLVMHSATSLRNVGLSA  -0.93 ± 2.4
151. FLSSCSMFMGRPWFSCYRVR  -1.02 ± 2.4
152. FQSDYRRRMFVMSD  -1.03 ± 1.4
153. FFQTLDWV  -1.13 ± 2.4
154. FGGWVSLRSQKCMRPWRLGG  -1.22 ± 1.4
155. GAFGFITNRKRINCKLEDRD  -1.32 ± 2.4
156. FVQWFASSCCIRPRRYFVSR  -1.42 ± 1.6
157. FKTYYLATLDTNS  -1.73 ± 2.4

In the case of FFYLIISGMVMLSNPLSRVS, the amyloid nucleation score is reported as “inactive”.
For FIELMRGDDLMHRGTLYVLR, the amyloid nucleation score was “inactive”.
In the case of FIRSVKRGARWSGGNFFIEG, the amyloid nucleation score is reported as “inactive”.
In the case of FLYWSHSYFLITWFRCVLEI, the amyloid nucleation score is reported as “inactive”.
In the case of FPTFLPQWTGKCFALRCGRW, the amyloid nucleation score is reported as “inactive”.
For FRHYTANYWYISRRRRMLSV, the amyloid nucleation score was “inactive”.
With FSAIMVRC the amyloid nucleation score was “inactive”.
With FSGCQSARGKLWVSDWEL the amyloid nucleation score was “inactive”.
For FSRYLPKLNSLAKDSIPVGR, the amyloid nucleation score was “inactive”.
In the case of FTRSQAV, the amyloid nucleation score is reported as “inactive”.
With FVDFMQRNWGLVRVPCHVSL the amyloid nucleation score was “inactive”.
For FWKGASINYS, the amyloid nucleation score was “inactive”.
With FYTLKFMVKALTVKKGVCVV the amyloid nucleation score was “inactive”.
